# Measured values as given in the supplement of paper PMC9233669.
# This sample holds only a part of the variants without activity.
# Tests used:
# biotinyl-Val-oxazolone = experiment: self-aminoacylation, catalytic enhancement (BVO) (fold over background); higher = more active; k-Seq, kA / k0A0; sequences stand for … in GGGAAUGGAUCCACAUCUACGAAUUC…UUCACUGCAGACUUGACGAAGCUG
# Method in brief: (§1)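 Mutagenized RNA pools (0.43 μM; 21-nt variable region) were treated with 2–1250 μM of each biotinyl-aminoacyl-oxazolone. Conditions were 50 μL HEPES/NaCl/KCl/MgCl2/CaCl2 buffer, 5% acetonitrile, pH 6.9–7.0, room temperature, 90 minutes. Catalytic enhancement, the median kA relative to the uncatalyzed rate, was derived from streptavidin capture, qPCR and Illumina sequencing.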
# biotinyl-Ile-oxazolone = experiment: self-aminoacylation, catalytic enhancement (BIO) (fold over background); higher = more active; k-Seq, kA / k0A0; sequences stand for … in GGGAAUGGAUCCACAUCUACGAAUUC…UUCACUGCAGACUUGACGAAGCUG
# Method in brief: as §1
# biotinyl-Phe-oxazolone = experiment: self-aminoacylation, catalytic enhancement (BFO) (fold over background); higher = more active; k-Seq, kA / k0A0; sequences stand for … in GGGAAUGGAUCCACAUCUACGAAUUC…UUCACUGCAGACUUGACGAAGCUG
# Method in brief: as §1
# biotinyl-Leu-oxazolone = experiment: self-aminoacylation, catalytic enhancement (BLO) (fold over background); higher = more active; k-Seq, kA / k0A0; sequences stand for … in GGGAAUGGAUCCACAUCUACGAAUUC…UUCACUGCAGACUUGACGAAGCUG
# Method in brief: as §1
# biotinyl-Met-oxazolone = experiment: self-aminoacylation, catalytic enhancement (BMO) (fold over background); higher = more active; k-Seq, kA / k0A0; sequences stand for … in GGGAAUGGAUCCACAUCUACGAAUUC…UUCACUGCAGACUUGACGAAGCUG
# Method in brief: as §1
# biotinyl-Trp-oxazolone = experiment: self-aminoacylation, catalytic enhancement (BWO) (fold over background); higher = more active; k-Seq, kA / k0A0; sequences stand for … in GGGAAUGGAUCCACAUCUACGAAUUC…UUCACUGCAGACUUGACGAAGCUG
# Method in brief: as §1
Sequence,self-aminoacylation (biotinyl-Val-oxazolone),self-aminoacylation (biotinyl-Ile-oxazolone),self-aminoacylation (biotinyl-Phe-oxazolone),self-aminoacylation (biotinyl-Leu-oxazolone),self-aminoacylation (biotinyl-Met-oxazolone),self-aminoacylation (biotinyl-Trp-oxazolone)
AUUUCCCUGGUCAUCGAGUGG [Fam2.1 aminoacylation ribozyme variant],3.99,3.66,12,8.26,7.95,7.09
AUUUCCCUGGUCAUCGAGUGU [Fam2.1 aminoacylation ribozyme variant],7.71,6.35,26.8,14.6,14.9,12.4
AUUUCCCUGGUCAUCGCGUGA [Fam2.1 aminoacylation ribozyme variant],10.4,9.18,157,20.9,18.9,22.5
AUUUCCCUGGUCAUCGGGUGA [Fam2.1 aminoacylation ribozyme variant],11.6,10.1,90.8,21.5,18.5,23.9
AUUUCCCUGGUCCUCGAGUGA [Fam2.1 aminoacylation ribozyme variant],1.93,2.08,23.5,3.67,3.79,3.91
AUUUCCCUGGUUAUCGAGUGA [Fam2.1 aminoacylation ribozyme variant],4.39,4.12,58.2,8.65,9.01,10.9
AUUUUCCUGGUCAUCGAGUGA [Fam2.1 aminoacylation ribozyme variant],4.13,4.2,10.8,8.6,8.02,9.4
CAACACGUCAAGCAAUCGGUC [Fam1B.1 aminoacylation ribozyme variant],1.22,1.11,1.33,1.37,1.44,1.47
CAACACUACAAGCAAUCGGUC [Fam1B.1 aminoacylation ribozyme variant],1.01,0.955,0.958,0.914,0.956,0.713
CAACACUUAAAGCAAUCGGUC [Fam1B.1 aminoacylation ribozyme variant],0.909,1.12,0.828,0.82,0.98,0.79
CAACACUUCAACCAAUCGGUC [Fam1B.1 aminoacylation ribozyme variant],1.36,1.28,45.6,2.04,1.58,28.2
CAACACUUCAAGCAAUCGGUG [Fam1B.1 aminoacylation ribozyme variant],2.73,3.09,4.92,4.86,4.13,3.87
CAACUUCAAACAAUCGGCCUG [Fam1A.1 aminoacylation ribozyme variant],2.92,3.08,283,6.75,4.11,107
CAACUUCAAUCAAUCGGUCUG [Fam1A.1 aminoacylation ribozyme variant],1.4,1.43,35.7,2.03,1.36,24
CAAUACUUCAAGCAAUCGGUC [Fam1B.1 aminoacylation ribozyme variant],0.912,0.907,9.23,0.986,0.799,5.14
CAGUUUGCUAACAGUCGCAAG [Fam3.1 aminoacylation ribozyme variant],1.16,1.31,2,1.6,1.83,1.32
CAGUUUGCUAAUAGACGCAAG [Fam3.1 aminoacylation ribozyme variant],0.858,0.91,1.08,0.895,0.814,1.61
CAGUUUGCUAAUAGUCGCAAG [Fam3.1 aminoacylation ribozyme variant],1.21,1.36,2.94,1.35,1.28,1.55
CAGUUUGCUAGUAGUCGCAAG [Fam3.1 aminoacylation ribozyme variant],1.04,0.938,1.19,1.25,0.827,1.37
CAGUUUGGUAAUAGUCGCAAG [Fam3.1 aminoacylation ribozyme variant],1.67,1.85,2.57,1.73,1.73,1.97
CAUCACCUAGGUCAUCGGGUG [Fam2.2 aminoacylation ribozyme variant],4.05,3.15,21,6.23,6.18,5.76
CCAAACUUCAAGCAAUAGGUC [Fam1B.1 aminoacylation ribozyme variant],0.602,0.605,0.911,0.527,0.574,0.458
CCAAACUUCAAGCAAUCGGAC [Fam1B.1 aminoacylation ribozyme variant],1.1,0.912,1.14,0.789,0.662,0.602
CCAAACUUCAAGCAAUCGGUG [Fam1B.1 aminoacylation ribozyme variant],4.43,4.67,32.4,8.21,5.65,6.12
CCAAACUUCAAGCAAUCGUUC [Fam1B.1 aminoacylation ribozyme variant],0.93,0.743,0.813,0.621,0.66,0.803
